According to article PMC5006017:

Biological target: syntenin-1 N-terminal wild-type peptide, biotinylated (UniProt O00560)
Experiment: SPR; BIAcore 3000; biotinylated syntenin-1 N-terminal peptides immobilised on streptavidin-coupled CM5 chips, ALIX V-domain injected at 20 μl/min; 10 mM HEPES pH 7.4, 150 mM NaCl, 0.005% Surfactant P20; equilibrium analysis, one-site binding model

- Kd: 29 µM
Substance: ALIX V-domain (ALIX 364-716) (from UniProt Q8WUM4 364-716) (domain or fragment)
